Measurements published in PMC8200818, “SPECT/CT Imaging, Biodistribution and Radiation Dosimetry of a ^177Lu-DOTA-Integrin αvβ6 Cystine Knot Peptide in a Pancreatic Cancer Xenograft Model” (Frontiers in Oncology, 2021).

How the values were obtained:
in vivo = settings: female, athymic NMRI-Foxn1^nu/Foxn1^nu, mouse, iv, 1 MBq, total radioactivity
Description: (§1) For in vivo experiments, at least 8-week-old female athymic NMRI-Foxn1^nu/Foxn1^nu mice (Janvier Labs, Saint-Berthevin, France) were used. Animal care followed institutional guidelines and all experiments were approved by local animal research authorities. For the generation of tumor xenografts, 5 x 10^6 cells of Capan-2 cells were inoculated subcutaneously into the left and right shoulder (1:1 phosphate-buffered saline [PBS]/Matrigel Basement Membrane Matrix High Concentration, Corning, Corning, USA). Tumors were allowed to grow for two to four weeks (tumor volume > 100 mm^3) after cell inoculation.
(§2) Radiolabeling of the DOTA-integrin αvβ6 knottin was carried out manually using [^177Lu]LuCl3 and a reagent kit from ITG Isotope Technologies Garching GmbH (Garching, Germany). A total of 40 µL (stock solution of peptide at 1 µg/µL in 10% DMSO in water) was added to 500 µL of ascorbate buffer solution pH 5.0, prepared from the kit (composition not disclosed by vendor) and the resulting mixture was then added to 35 µL of [^177Lu]LuCl3 (2 GBq in aqueous 0.04 M HCl) and the reaction mixture was heated at 80 °C for 35 minutes followed by cooling for 10 minutes at room temperature. The product was then diluted with 0.5 mL of saline and the pH was adjusted to 7 using a 1 M aqueous solution of NaHCO3 prior to injection in mice. A reverse-phase HPLC system (Knauer GmbH, Germany) with a column (Eurospher II, C18, 250 × 4 mm) was used to determine the radiochemical purity of the radiotracer. The HPLC system was equipped with an Azura P.6.1L pump coupled with ultraviolet (Azura UVD 2.1L) and radiometric (γ-Raytest-Isotopenmessgeraete GmbH, Germany) detectors. The gradient elution system used mobile phase A (100% acetonitrile) and mobile phase B (deionized H2O containing 0.1% trifluoroacetic acid) and a flow rate of 1.0 mL/min. Starting with 0% A and 100% B, the gradient was increased to 100% A over 25 min and finally returned to initial gradient conditions within 5 min.
(§3) Tumor-bearing mice (n=4-5 per time point) were injected with approximately 1 MBq (22 pmol) of ^177Lu-DOTA-integrin αvβ6 knottin to the tail vein via a catheter. Mice (n=4-5 per time point) were sacrificed and dissected one, two, three and eight days post injection. Tumor, blood, stomach, pancreas, small intestine, colon, liver, spleen, kidney, heart, lung, muscle and femur samples were weighed and uptake of radioactivity was measured by a gamma counter.

Capan-2 xenografts = test: in vivo; settings: for Kidney uptake / Blood activity: ~1 MBq i.v.
Description: as §1, §2, §3

[1] = 192 h p.i., nude mice, Capan-2 xenografts, mean ± SD (4 ≤ n ≤ 5)

With `CC[C@H](C)[C@@H]1NC(=O)[C@@H](NC(=O)CNC(=O)CN2CCN(CC(=O)O)CCN(CC(=O)O)CCN(CC(=O)O)CC2)CSSC[C@@H]2NC(=O)[C@H](C)NC(=O)CNC(=O)[C@@H]3CCCN3C(=O)[C@@H]3CSSC[C@@H](C(=O)NCC(=O)O)NC(=O)[C@H](Cc4ccc(O)cc4)NC(=O)CNC(=O)[C@H](CC(N)=O)NC(=O)CNC(=O)[C@H](CCCNC(=N)N)NC(=O)[C@H](CSSC[C@H](NC(=O)[C@H](CCCNC(=N)N)NC(=O)[C@H](Cc4ccccc4)NC(=O)[C@H](CC(C)C)NC(=O)[C@H](CC(C)C)NC(=O)[C@H]([C@@H](C)O)NC(=O)CNC(=O)[C@H](CC(C)C)NC(=O)[C@H](CC(=O)O)NC(=O)[C@H]([C@@H](C)O)NC(=O)[C@H](CCCNC(=N)N)NC(=O)CNC(=O)[C@H](CC(N)=O)NC(=O)[C@H](CC(C)C)NC1=O)C(=O)N[C@@H](CCCNC(=N)N)C(=O)N[C@@H](CCCNC(=N)N)C(=O)N[C@@H](CC(=O)O)C(=O)N[C@@H](CO)C(=O)N[C@@H](CC(=O)O)C(=O)N3)NC(=O)[C@H]([C@@H](C)CC)NC2=O` [^177Lu-DOTA-integrin αvβ6 knottin, metal not drawn] as the compound, how does the tissue uptake at 72 h (in vivo; femur, Femur uptake, 72 h p.i., ~1 MBq i.v., nude mice, Capan-2 xenografts, mean ± SD (4 ≤ n ≤ 5)) read?
The tissue uptake at 72 h was 0.13 %ID/g.

And the tissue uptake at 192 h (in vivo; femur, Femur uptake, 192 h p.i., ~1 MBq i.v., nude mice, Capan-2 xenografts, mean ± SD (4 ≤ n ≤ 5))?
Its tissue uptake at 192 h is 0.07 %ID/g.

What about the tissue uptake at 24 h (in vivo; heart, Heart uptake, 24 h p.i., ~1 MBq i.v., nude mice, Capan-2 xenografts, mean ± SD (4 ≤ n ≤ 5)) of the same compound?
The tissue uptake at 24 h was 0.16 %ID/g.

And the tissue uptake at 48 h (in vivo; heart, Heart uptake, 48 h p.i., ~1 MBq i.v., nude mice, Capan-2 xenografts, mean ± SD (4 ≤ n ≤ 5))?
The tissue uptake at 48 h was 0.07 %ID/g.

What about the tissue uptake at 72 h (in vivo; heart, Heart uptake, 72 h p.i., ~1 MBq i.v., nude mice, Capan-2 xenografts, mean ± SD (4 ≤ n ≤ 5)) of the same compound?
The tissue uptake at 72 h was 0.08 %ID/g.

What about the tissue uptake at 192 h (in vivo; heart, Heart uptake, 192 h p.i., ~1 MBq i.v., nude mice, Capan-2 xenografts, mean ± SD (4 ≤ n ≤ 5)) of the same compound?
Its tissue uptake at 192 h is 0.04 %ID/g.

What about the tissue uptake at 24 h (in vivo; kidney, Kidney uptake, 24 h p.i., ~1 MBq i.v., nude mice, Capan-2 xenografts, mean ± SD (4 ≤ n ≤ 5)) of the same compound?
Its tissue uptake at 24 h is 19.2 %ID/g.

And the tissue uptake at 48 h (in vivo; kidney, Kidney uptake, 48 h p.i., ~1 MBq i.v., nude mice, Capan-2 xenografts, mean ± SD (4 ≤ n ≤ 5))?
The tissue uptake at 48 h was 12.5 %ID/g.

And the tissue uptake at 72 h (in vivo; kidney, Kidney uptake, 72 h p.i., ~1 MBq i.v., nude mice, Capan-2 xenografts, mean ± SD (4 ≤ n ≤ 5))?
The tissue uptake at 72 h was 14.7 %ID/g.

And the tissue uptake at 192 h (in vivo; kidney, Kidney uptake, 192 h p.i., ~1 MBq i.v., nude mice, Capan-2 xenografts, mean ± SD (4 ≤ n ≤ 5))?
The tissue uptake at 192 h was 2.28 %ID/g.

And the tissue uptake at 24 h (in vivo; kidney, Kidney uptake, day 1 p.i., ~1 MBq i.v., Capan-2 xenograft mice)?
Its tissue uptake at 24 h is 19.2 ± 2.5 %ID/g.

What about the tissue uptake at 72 h (in vivo; kidney, Kidney uptake, day 3 p.i., ~1 MBq i.v., Capan-2 xenograft mice) of the same compound?
Its tissue uptake at 72 h is 14.7 ± 4.5 %ID/g.

What about the tissue uptake at 192 h (in vivo; kidney, Kidney uptake, day 8 p.i., ~1 MBq i.v., Capan-2 xenograft mice) of the same compound?
Its tissue uptake at 192 h is 2.3 ± 0.4 %ID/g.

And the tissue uptake at 24 h (in vivo; lung, Lung uptake, 24 h p.i., ~1 MBq i.v., nude mice, Capan-2 xenografts, mean ± SD (4 ≤ n ≤ 5))?
Its tissue uptake at 24 h is 1.74 %ID/g.

And the tissue uptake at 48 h (in vivo; lung, Lung uptake, 48 h p.i., ~1 MBq i.v., nude mice, Capan-2 xenografts, mean ± SD (4 ≤ n ≤ 5))?
Its tissue uptake at 48 h is 0.53 %ID/g.

And the tissue uptake at 72 h (in vivo; lung, Lung uptake, 72 h p.i., ~1 MBq i.v., nude mice, Capan-2 xenografts, mean ± SD (4 ≤ n ≤ 5))?
Its tissue uptake at 72 h is 0.52 %ID/g.

And the tissue uptake at 192 h (in vivo; lung, Lung uptake, 192 h p.i., ~1 MBq i.v., nude mice, Capan-2 xenografts, mean ± SD (4 ≤ n ≤ 5))?
Its tissue uptake at 192 h is 0.06 %ID/g.

What about the tissue uptake at 24 h (in vivo; muscle, Muscle uptake, 24 h p.i., ~1 MBq i.v., nude mice, Capan-2 xenografts, mean ± SD (4 ≤ n ≤ 5)) of the same compound?
The tissue uptake at 24 h was 0.26 %ID/g.

And the tissue uptake at 48 h (in vivo; muscle, Muscle uptake, 48 h p.i., ~1 MBq i.v., nude mice, Capan-2 xenografts, mean ± SD (4 ≤ n ≤ 5))?
Its tissue uptake at 48 h is 0.11 %ID/g.

What about the tissue uptake at 72 h (in vivo; muscle, Muscle uptake, 72 h p.i., ~1 MBq i.v., nude mice, Capan-2 xenografts, mean ± SD (4 ≤ n ≤ 5)) of the same compound?
Its tissue uptake at 72 h is 0.1 %ID/g.

What about the tissue uptake at 192 h (in vivo; muscle, Muscle uptake, 192 h p.i., ~1 MBq i.v., nude mice, Capan-2 xenografts, mean ± SD (4 ≤ n ≤ 5)) of the same compound?
Its tissue uptake at 192 h is 0.04 %ID/g.

And the tissue uptake at 24 h (in vivo; pancreas, Pancreas uptake, 24 h p.i., ~1 MBq i.v., nude mice, Capan-2 xenografts, mean ± SD (4 ≤ n ≤ 5))?
Its tissue uptake at 24 h is 0.65 %ID/g.

What about the tissue uptake at 48 h (in vivo; pancreas, Pancreas uptake, 48 h p.i., ~1 MBq i.v., nude mice, Capan-2 xenografts, mean ± SD (4 ≤ n ≤ 5)) of the same compound?
Its tissue uptake at 48 h is 0.17 %ID/g.

What about the tissue uptake at 72 h (in vivo; pancreas, Pancreas uptake, 72 h p.i., ~1 MBq i.v., nude mice, Capan-2 xenografts, mean ± SD (4 ≤ n ≤ 5)) of the same compound?
The tissue uptake at 72 h was 0.29 %ID/g.

And the tissue uptake at 192 h (in vivo; pancreas, Pancreas uptake, 192 h p.i., ~1 MBq i.v., nude mice, Capan-2 xenografts, mean ± SD (4 ≤ n ≤ 5))?
Its tissue uptake at 192 h is 0.03 %ID/g.

What about the tissue uptake at 192 h (in vivo; spleen, Spleen uptake, 192 h p.i., ~1 MBq i.v., nude mice, Capan-2 xenografts, mean ± SD (4 ≤ n ≤ 5)) of the same compound?
The tissue uptake at 192 h was 0.04 %ID/g.

What about the tissue uptake at 24 h (in vivo; stomach, Stomach uptake, 24 h p.i., ~1 MBq i.v., nude mice, Capan-2 xenografts, mean ± SD (4 ≤ n ≤ 5)) of the same compound?
The tissue uptake at 24 h was 1.92 %ID/g.

And the tissue uptake at 48 h (in vivo; stomach, Stomach uptake, 48 h p.i., ~1 MBq i.v., nude mice, Capan-2 xenografts, mean ± SD (4 ≤ n ≤ 5))?
Its tissue uptake at 48 h is 1.01 %ID/g.

And the tissue uptake at 72 h (in vivo; stomach, Stomach uptake, 72 h p.i., ~1 MBq i.v., nude mice, Capan-2 xenografts, mean ± SD (4 ≤ n ≤ 5))?
Its tissue uptake at 72 h is 0.83 %ID/g.

What about the tissue uptake at 192 h (in vivo; stomach, Stomach uptake, 192 h p.i., ~1 MBq i.v., nude mice, Capan-2 xenografts, mean ± SD (4 ≤ n ≤ 5)) of the same compound?
The tissue uptake at 192 h was 0.14 %ID/g.

And the tissue uptake at 24 h (in vivo; tail, Tail activity, 24 h p.i., ~1 MBq i.v., nude mice, Capan-2 xenografts, mean ± SD (4 ≤ n ≤ 5))?
Its tissue uptake at 24 h is 0.31 %ID/g.

What about the tissue uptake at 48 h (in vivo; tail, Tail activity, 48 h p.i., ~1 MBq i.v., nude mice, Capan-2 xenografts, mean ± SD (4 ≤ n ≤ 5)) of the same compound?
The tissue uptake at 48 h was 0.2 %ID/g.

And the tissue uptake at 24 h (in vivo; tumor, Tumor uptake, 24 h p.i., ~1 MBq (22 pmol) i.v., nude mice, Capan-2 xenografts, mean ± SD (4 ≤ n ≤ 5))?
Its tissue uptake at 24 h is 3.13 %ID/g.

And the tissue uptake at 24 h (in vivo; tumor, Tumor uptake, day 1 p.i., ~1 MBq i.v., Capan-2 xenografts, mean ± S.E.M.)?
Its tissue uptake at 24 h is 3.1 ± 0.6 %ID/g.

And the tissue uptake at 48 h (in vivo; tumor, Tumor uptake, day 2 p.i., ~1 MBq i.v., Capan-2 xenografts, mean ± S.E.M.)?
Its tissue uptake at 48 h is 2.5 ± 0.4 %ID/g.

And the tissue uptake at 72 h (in vivo; tumor, Tumor uptake, day 3 p.i., ~1 MBq i.v., Capan-2 xenografts, mean ± S.E.M.)?
Its tissue uptake at 72 h is 3.5 ± 0.9 %ID/g.

What about the tissue uptake at 192 h (in vivo; tumor, Tumor uptake, day 8 p.i., ~1 MBq i.v., Capan-2 xenografts, mean ± S.E.M.) of the same compound?
Its tissue uptake at 192 h is 1.2 ± 0.2 %ID/g.

What about the Tumor uptake (Capan-2 xenografts; 24 h p.i., ~1 MBq (22 pmol) i.v., nude mice, Capan-2 xenografts, mean ± SD (4 ≤ n ≤ 5)) of the same compound?
The Tumor uptake was 3.13 ± 0.63 %IA/g.

And the Kidney uptake (Capan-2 xenografts; 24 h p.i., nude mice, Capan-2 xenografts, mean ± SD (4 ≤ n ≤ 5))?
The Kidney uptake was 19.2 ± 2.5 %IA/g.

What about the Blood activity (Capan-2 xenografts; 48 h p.i., nude mice, Capan-2 xenografts, mean ± SD (4 ≤ n ≤ 5)) of the same compound?
Its Blood activity is 0.00 %IA/g.

And the Blood activity (Capan-2 xenografts; [1])?
The Blood activity was 0.00 %IA/g.

What about the Kidney uptake (Capan-2 xenografts; [1]) of the same compound?
The Kidney uptake was 2.3 ± 0.40 %IA/g.

What about the “Tumor uptake compared with ^64Cu conjugate” value (Capan-2 xenografts; comparison with earlier study, cited there as [19]) of the same compound?
The value was “tumor uptake was not found to be higher”.

And the “Kidney wash-out versus tumor (ex vivo)” value (Capan-2 xenografts; days 1, 2, 3 and 8 p.i., listed as 177Lu tracer)?
Its value is “in the tumor the activity was cleared at a much lower rate than in the kidney”.

What about the “Activity in organs like stomach, colon and lung” value (Capan-2 xenografts; later time points) of the same compound?
The value was “low or moderate activity”.
